# Source: IntAct's records for PubMed 19040637
# B1: Probable glutaredoxin ssr2061 (Synechocystis sp. (strain PCC 6803 / Kazusa)), P73492 (parent)
# chain: MAVSAKIEIYTWSTCPFCMRALALLKRKGVEFQEYCIDGDNEAREAMAARANGKRSLPQIFIDDQHIGGCDDIYALDGAGKLDPLLHS
# partner: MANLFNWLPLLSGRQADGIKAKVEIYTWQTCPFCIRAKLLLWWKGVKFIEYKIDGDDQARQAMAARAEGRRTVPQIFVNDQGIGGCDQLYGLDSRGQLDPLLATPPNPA
# B2: Probable glutaredoxin slr1562 (Synechocystis sp. (strain PCC 6803 / Kazusa)), P74593 (parent)
# chain: B1 partner
# partner: B1 chain
# Variants of: B1
# Conditions: with glrx1_syny3 glrx1, P74593
row,effect of a mutation on the interaction,Variant
1,decreasing interaction strength,MAVSAKIEIYTWSTCPFSMRALALLKRKGVEFQEYCIDGDNEAREAMAARANGKRSLPQIFIDDQHIGGCDDIYALDGAGKLDPLLHS
2,decreasing interaction strength,MAVSAKIEIYTWSTCPFCMRALALLKRKGVEFQEYSIDGDNEAREAMAARANGKRSLPQIFIDDQHIGGCDDIYALDGAGKLDPLLHS
3,decreasing interaction strength,MAVSAKIEIYTWSTCPFCMRAKALLKRKGVEFQEYCIDGDNEAREAMAARANGKRSLPQIFIDDQHIGGCDDIYALDGAGKLDPLLHS

# Variants of: B2
# Conditions: with glrx2_syny3 glrx2, P73492
row,effect of a mutation on the interaction,Variant
1,disrupting interaction strength,MANLFNWLPLLSGRQADGIKAKVEIYTWQTCPFCIRAKLLLWWKGVKFIEYKIDGDDQARQAMAARAEGRRTVPQIFVNDQGIGGSDQLYGLDSRGQLDPLLATPPNPA
2,decreasing interaction strength,MANLFNWLPLLSGRQADGIKAKVEIYTWQTSPFCIRAKLLLWWKGVKFIEYKIDGDDQARQAMAARAEGRRTVPQIFVNDQGIGGCDQLYGLDSRGQLDPLLATPPNPA
3,disrupting interaction strength,MANLFNWLPLLSGRQADGIKAKVEIYTWQTCPFSIRAKLLLWWKGVKFIEYKIDGDDQARQAMAARAEGRRTVPQIFVNDQGIGGCDQLYGLDSRGQLDPLLATPPNPA
